From patent publication US20220119490A1 (Genentech, published 2022)
Substitutions are numbered along the chain they refer to. Values belong to the binder of their own block, whether it stands above or below them.

Key:
[1] = target: T1, PTPRD extracellular domain (wild type) (human, UniProt P23468 21-1265); assay: SPR, ILRAPL1 (IL1RAPL1) ECD-Fc immobilized, PTPRD ectodomain-Fc as analyte
T1 construct: extracellular domain; Ectodomain-Fc in SPR; also called wt PTPRD; PTPRD ectodomain fused to an Fc tag
T1 sequence (looked up): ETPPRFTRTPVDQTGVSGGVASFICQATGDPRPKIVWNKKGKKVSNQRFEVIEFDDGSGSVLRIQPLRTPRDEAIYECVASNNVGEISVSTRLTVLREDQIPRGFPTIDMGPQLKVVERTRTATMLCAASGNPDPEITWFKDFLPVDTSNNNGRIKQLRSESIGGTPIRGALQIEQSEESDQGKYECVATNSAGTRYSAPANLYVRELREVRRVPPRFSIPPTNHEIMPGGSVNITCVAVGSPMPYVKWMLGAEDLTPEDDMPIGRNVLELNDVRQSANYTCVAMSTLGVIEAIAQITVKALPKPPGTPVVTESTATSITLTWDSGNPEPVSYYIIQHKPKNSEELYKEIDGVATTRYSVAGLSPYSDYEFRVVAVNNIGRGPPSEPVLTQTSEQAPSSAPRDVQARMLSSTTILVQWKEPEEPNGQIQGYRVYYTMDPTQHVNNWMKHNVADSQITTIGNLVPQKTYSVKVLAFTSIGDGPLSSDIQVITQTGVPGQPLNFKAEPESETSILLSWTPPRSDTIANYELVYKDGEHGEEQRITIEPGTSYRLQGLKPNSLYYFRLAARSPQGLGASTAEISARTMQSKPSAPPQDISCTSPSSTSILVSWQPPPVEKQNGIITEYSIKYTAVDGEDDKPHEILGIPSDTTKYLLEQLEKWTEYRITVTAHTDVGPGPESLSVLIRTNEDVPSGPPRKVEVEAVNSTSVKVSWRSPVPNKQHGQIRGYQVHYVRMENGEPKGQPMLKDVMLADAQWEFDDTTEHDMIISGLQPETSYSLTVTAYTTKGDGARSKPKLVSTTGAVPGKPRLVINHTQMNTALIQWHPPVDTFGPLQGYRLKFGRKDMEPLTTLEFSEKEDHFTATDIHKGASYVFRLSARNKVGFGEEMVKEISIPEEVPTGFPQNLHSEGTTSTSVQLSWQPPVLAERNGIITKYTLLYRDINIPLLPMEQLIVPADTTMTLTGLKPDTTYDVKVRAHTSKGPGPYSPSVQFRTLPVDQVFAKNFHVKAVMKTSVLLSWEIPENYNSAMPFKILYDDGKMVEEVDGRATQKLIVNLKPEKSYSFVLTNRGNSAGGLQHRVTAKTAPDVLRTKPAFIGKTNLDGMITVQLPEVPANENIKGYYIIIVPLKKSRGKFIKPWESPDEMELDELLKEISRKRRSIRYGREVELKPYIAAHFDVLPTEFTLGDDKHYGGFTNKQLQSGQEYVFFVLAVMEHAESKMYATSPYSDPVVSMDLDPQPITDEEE
Procedure: (§1) The indicated protein (expressed as an ECD-Fc fusion protein) was immobilized on a sensor chip and PTPRD (expressed as an ectodomain fused to an Fc tag) was injected at the indicated concentrations.

[2] = target: T1, PTPRD extracellular domain (wild type); assay: SPR, SLITRK1 ECD-Fc immobilized, PTPRD ectodomain-Fc as analyte
Procedure: as §1

[3] = target: T1, PTPRD extracellular domain (wild type); assay: SPR, LRFN1 ECD-Fc immobilized, PTPRD ectodomain-Fc as analyte
Procedure: as §1

[4] = target: T1, PTPRD extracellular domain (wild type); assay: SPR, SLITRK4 ECD-Fc immobilized, PTPRD ectodomain-Fc as analyte
Procedure: as §1

[5] = target: T1, PTPRD extracellular domain (wild type); assay: SPR, LRFN4 ECD-Fc immobilized, PTPRD ectodomain-Fc as analyte
Procedure: as §1

[6] = target: T2, PTPRD G203E K204E variant extracellular domain (human, UniProt P23468 21-1265); assay: extracellular interaction screen: pentameric PTPRD variant ECD on ECD-Fc prey (FIG. 5L)
T2 construct: extracellular domain; also called G203E/K204E double mutant; IG2 mutant
T2 sequence (looked up): T1 sequence (looked up) with G183E, K184E

binding result [1]: binds
B1: IL1RAPL1 extracellular domain (receptor, human, UniProt Q9NZN1 19-357, looked up)
chain: LKVVTKRGSADGCTDWSIDIKKYQVLVGEPVRIKCALFYGYIRTNYSLAQSAGLSLMWYKSSGPGDFEEPIAFDGSRMSKEEDSIWFRPTLLQDSGLYACVIRNSTYCMKVSISLTVGENDTGLCYNSKMKYFEKAELSKSKEISCRDIEDFLLPTREPEILWYKECRTKTWRPSIVFKRDTLLIREVREDDIGNYTCELKYGGFVVRRTTELTVTAPLTDKPPKLLYPMESKLTIQETQLGDSANLTCRAFFGYSGDVSPLIYWMKGEKFIEDLDENRVWESDIRILKEHLGEQEVSISLIVDSVEEGDLGNYSCYVENGNGRRHASVLLHKRELMYT
notes: extracellular domain; ECD-Fc; also called ILRAPL1

binding result [2]: binds
B2: SLITRK1 extracellular domain (receptor, human, UniProt Q96PX8 18-622, looked up)
chain: NVTGDVCKEKICSCNEIEGDLHVDCEKKGFTSLQRFTAPTSQFYHLFLHGNSLTRLFPNEFANFYNAVSLHMENNGLHEIVPGAFLGLQLVKRLHINNNKIKSFRKQTFLGLDDLEYLQADFNLLRDIDPGAFQDLNKLEVLILNDNLISTLPANVFQYVPITHLDLRGNRLKTLPYEEVLEQIPGIAEILLEDNPWDCTCDLLSLKEWLENIPKNALIGRVVCEAPTRLQGKDLNETTEQDLCPLKNRVDSSLPAPPAQEETFAPGPLPTPFKTNGQEDHATPGSAPNGGTKIPGNWQIKIRPTAAIATGSSRNKPLANSLPCPGGCSCDHIPGSGLKMNCNNRNVSSLADLKPKLSNVQELFLRDNKIHSIRKSHFVDYKNLILLDLGNNNIATVENNTFKNLLDLRWLYMDSNYLDTLSREKFAGLQNLEYLNVEYNAIQLILPGTFNAMPKLRILILNNNLLRSLPVDVFAGVSLSKLSLHNNYFMYLPVAGVLDQLTSIIQIDLHGNPWECSCTIVPFKQWAERLGSEVLMSDLKCETPVNFFRKDFMLLSNDEICPQLYARISPTLTSHSKNSTGLAETGTHSNSYLDTSRVSISVLVP
notes: extracellular domain; ECD-Fc

binding result [3]: binds
B3: LRFN1 extracellular domain (receptor, human, UniProt Q9P244 32-536, looked up)
chain: QPCPGRCICQNVAPTLTMLCAKTGLLFVPPAIDRRVVELRLTDNFIAAVRRRDFANMTSLVHLTLSRNTIGQVAAGAFADLRALRALHLDSNRLAEVRGDQLRGLGNLRHLILGNNQIRRVESAAFDAFLSTVEDLDLSYNNLEALPWEAVGQMVNLNTLTLDHNLIDHIAEGTFVQLHKLVRLDMTSNRLHKLPPDGLFLRSQGTGPKPPTPLTVSFGGNPLHCNCELLWLRRLTREDDLETCATPEHLTDRYFWSIPEEEFLCEPPLITRQAGGRALVVEGQAVSLRCRAVGDPEPVVHWVAPDGRLLGNSSRTRVRGDGTLDVTITTLRDSGTFTCIASNAAGEATAPVEVCVVPLPLMAPPPAAPPPLTEPGSSDIATPGRPGANDSAAERRLVAAELTSNSVLIRWPAQRPVPGIRMYQVQYNSSVDDSLVYRMIPSTSQTFLVNDLAAGRAYDLCVLAVYDDGATALPATRVVGCVQFTTAGDPAPCRPLRAHFLGGTM
notes: extracellular domain; ECD-Fc; also called LFRN1

binding result [4]: binds
B4: SLITRK4 extracellular domain (receptor, human, UniProt Q8IW52 19-618, looked up)
chain: DSDISVEICNVCSCVSVENVLYVNCEKVSVYRPNQLKPPWSNFYHLNFQNNFLNILYPNTFLNFSHAVSLHLGNNKLQNIEGGAFLGLSALKQLHLNNNELKILRADTFLGIENLEYLQADYNLIKYIERGAFNKLHKLKVLILNDNLISFLPDNIFRFASLTHLDIRGNRIQKLPYIGVLEHIGRVVELQLEDNPWNCSCDLLPLKAWLENMPYNIYIGEAICETPSDLYGRLLKETNKQELCPMGTGSDFDVRILPPSQLENGYTTPNGHTTQTSLHRLVTKPPKTTNPSKISGIVAGKALSNRNLSQIVSYQTRVPPLTPCPAPCFCKTHPSDLGLSVNCQEKNIQSMSELIPKPLNAKKLHVNGNSIKDVDVSDFTDFEGLDLLHLGSNQITVIKGDVFHNLTNLRRLYLNGNQIERLYPEIFSGLHNLQYLYLEYNLIKEISAGTFDSMPNLQLLYLNNNLLKSLPVYIFSGAPLARLNLRNNKFMYLPVSGVLDQLQSLTQIDLEGNPWDCTCDLVALKLWVEKLSDGIVVKELKCETPVQFANIELKSLKNEILCPKLLNKPSAPFTSPAPAITFTTPLGPIRSPPGGPVPLS
notes: extracellular domain; ECD-Fc

binding result [5]: binds
binding result [6]: no binding
B5: LRFN4 extracellular domain (receptor, human, UniProt Q6PJG9 17-518, looked up)
chain: CPLPCVCQNLSESLSTLCAHRGLLFVPPNVDRRTVELRLADNFIQALGPPDFRNMTGLVDLTLSRNAITRIGARAFGDLESLRSLHLDGNRLVELGTGSLRGPVNLQHLILSGNQLGRIAPGAFDDFLESLEDLDLSYNNLRQVPWAGIGAMPALHTLNLDHNLIDALPPGAFAQLGQLSRLDLTSNRLATLAPDPLFSRGRDAEASPAPLVLSFSGNPLHCNCELLWLRRLARPDDLETCASPPGLAGRYFWAVPEGEFSCEPPLIARHTQRLWVLEGQRATLRCRALGDPAPTMHWVGPDDRLVGNSSRARAFPNGTLEIGVTGAGDAGGYTCIATNPAGEATARVELRVLALPHGGNSSAEGGRPGPSDIAASARTAAEGEGTLESEPAVQVTEVTATSGLVSWGPGRPADPVWMFQIQYNSSEDETLIYRIVPASSHHFLLKHLVPGADYDLCLLALSPAAGPSDLTATRLLGCAHFSTLPASPLCHALQAHVLGGTL
notes: extracellular domain; ECD-Fc; also called LFRN4
